Assay results from the nanobody polyreactivity screen of Harvey et al. (2022).

Experiment: yeast display, Sf9 membrane polyspecificity reagent, FACS + sequencing; frameworks hold sequencing errors
Summary of the method: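 Polyreactivity labels are assigned by the sorting gate from which each nanobody was recovered. The gates were low and high (top ~1%), set on anti-HA fluorescence for expression and streptavidin fluorescence for reagent binding. Before sorting, galactose-induced (36–48 hours) yeast display cells were stained for 1 hour at 4 °C with 10% biotinylated, detergent-solubilized Sf9 membrane reagent.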

| Sequence | polyreactivity (PSR sort gate) |
| --- | --- |
| QVQLVESGGGLVQAGGSLRLSCAASGRTFRSYAMGWYRQAPGKERELVAGISYNGGSTYYADSVKGRFTISRDNAKNTVYLQMNSLKPEDTAVYYCAATDHYRLYDYWGLGTQVTVSS | low polyreactivity |
| QVQLVESGGGLVQAGGSLRLSCAASGRTFRSYAMGWYRQAPGKERELVAVISSDGSTYYADSVKGRFTISRDNAKNTVYLQMNSLKPEDTAVYYCAAEYTFEEIGGVEFDYWGQGTQVTVSS | low polyreactivity |
| QVQLVESGGGLVQAGGSLRLSCAASGRTFRSYVMGWYRQAPGKERELVAAITRSGGSTYYADSVKGRFTISRDNAKNTVYLQMNSLKPEDTAVYYCATDRWYYYPDYYPYGEYDYWGQGTQVTVSS | low polyreactivity |
| QVQLVESGGGLVQAGGSLRLSCAASGRTFRTYTMGWYRQAPGKEREFVAAITSSGASTYYADSVKGRFTISRDNAKNTVYLEMNSLKPEDTAVYYCAARYGRRLVWVPALLYDYWGQGTQVTVSS | high polyreactivity |
| QVQLVESGGGLVQAGGSLRLSCAASGRTFRTYTMGWYRQAPGKERELVAAIRSIDGITYYADSVKGRFTISRDNAKTTVDLPKNSLKPEDTAVYYCAARYTASKPMGYWGQGTQVTVSS | high polyreactivity |
| QVQLVESGGGLVQAGGSLRLSCAASGRTFRTYVMGWYRQAPGKEREFVAGITWSSGSTRYADSVKGRFTISRDNAKNTVYLQMNSLKPEDTAVYYCAASRVHSYNPGYPRYYYWGQGTQVTVSS | high polyreactivity |
| QVQLVESGGGLVQAGGSLRLSCAASGRTFRVNAMGWYRQAPGKERELVAAITWNGGSTYYADSVKGRFTISRDNAKNTVYLQMNSLKPEDTAVYYCAAKGARYTSRGYYWGQGTQVTVSS | high polyreactivity |
| QVQLVESGGGLVQAGGSLRLSCAASGRTFRVYAIGWYRQAPGKEREFVATISVRGGSTYYADSVKGRFTISRDNAKNNVYLQMNSLKPEDTAVYFCAADSYPYVYALYDYWGQGTQVTVSS | low polyreactivity |
| QVQLVESGGGLVQAGGSLRLSCAASGRTFRVYAMGWYRQAPGKERELVAAIRTDDSTNYADSVKGRFTISRDNAKNTVYLQMNSLKPEDTAVYYCNAEGQFTWLGRRRHKFEYWGQGTQVTVSS | low polyreactivity |
| QVQLVESGGGLVQAGGSLRLSCAASGRTFRVYVMGWYRQAPGKERELVAAIRSDASTNYADSVKGRFTISRDNAKNTVYLQMISLKPEDTAFYYCAARRGKSAGGYGDYYWGQGTQVTVSS | high polyreactivity |
| QVQLVESGGGLVQAGGSLRLSCAASGRTFRWNAMGWYRQAPGKERELVARISWRGGSTYYADSVKGRFTISRDNAKNTVYLQMNSLKPEDTAVYYCAATSPYYRTGYDYWGQGTQVTVSS | high polyreactivity |
| QVQLVESGGGLVQAGGSLRLSCAASGRTFRWTAMGWYRQAPGKERELVAAISYSGGSTYYADSVKGRFTISRDNAKNTVYLQMNSLKPEDTAVYYCAKAYSWYPIIRGLDSWGQGTQVTVSS | high polyreactivity |
| QVQLVESGGGLVQAGGSLRLSCAASGRTFRWYAMGWYRQAPGKERELVAAISGSGDRTYYADSVKGRFTISRDNAKNTVYLQMNSLKPEDTAVYYCNKAYLLYYTYARGDYWGQGTQVTVSS | high polyreactivity |
| QVQLVESGGGLVQAGGSLRLSCAASGRTFRYNAMGWYREAPGKERELVAAISTRGGSTYYADSVKGRFTISRDNAKNTVYLQMNSLKPEDTAVYYCAVTRRFPGHFEDYYWGQGTQVTVSS | low polyreactivity |
| QVQLVESGGGLVQAGGSLRLSCAASGRTFRYNAMGWYRQAPGKERELVAAITGGGSTYYADSVKGRFTISRDTAKNTVYLQMNSLKPEDTAVYYCAAANWRRIDYRYRFDYWGQGTQVTVSS | high polyreactivity |
| QVQLVESGGGLVQAGGSLRLSCAASGRTFRYYAMGWYIQAPGKERELVAAISWRGGSTYYAYSVKGRFTLSRDYAKNTVYLQINSLKPEDTAVYYCAAGILFGHYDYWGQATQVTVSS | high polyreactivity |
| QVQLVESGGGLVQAGGSLRLSCAASGRTFRYYAMGWYRPAPGKERELVAAITSGGSTYYADSVKGRFTISRDNAKNTVYLQMNSLKPEDTAVYYCNKDFTRTWTRHGDDYWGQGTQVTVSS | high polyreactivity |
